Experimental data as given in the nanobody polyreactivity screen of Harvey et al. (2022).

Assay: yeast display, Sf9 membrane polyspecificity reagent, FACS + sequencing; frameworks hold sequencing errors
Method in brief: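 A nanobody's polyreactivity label depends on the gate it was sorted from. Yeast display cells were stained with 10% biotinylated, detergent-solubilized Sf9 membrane reagent for 1 hour at 4 °C, enriched on streptavidin microbeads and sorted by FACS. The low and high (top ~1%) gates were set on anti-HA fluorescence for expression and streptavidin fluorescence for reagent binding.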

Sequence	polyreactivity (PSR sort gate)
QVQLVESGGGLVQAGGSLRLSCAASGRTFPYYAMGWYRQAPGKERELVAAITTNDGDTYYADSVKGRFTISRDNAKNTVYLQMNSLKPEDTAVYYCAADSGSTSEYEYWGQGTQVTVSS	low polyreactivity
QVQLVESGGGLVQAGGSLRLSCAASGRTFPYYVMGWYRQAPGKERELVAAIRRTGGSTYYADSLKGRFTISRDNAKNTVYLQMNSLKPEDTAVYYCTKRHSILYEGGYDYWGQGTQVTVSS	low polyreactivity
QVQLVESGGGLVQAGGSLRLSCAASGRTFQFYAMGWYRKAPGKEREFVAAIDLRGGSTYYADSVKGRFTISRDNAKNRVYLQMNSLKPEDTAVYYCNATRSKFGYFYRYDYWGQGTQVTVSS	low polyreactivity
QVQLVESGGGLVQAGGSLRLSCAASGRTFQFYPMGWYRQAPGKERELVAAIDLRGGSTYYADSVKGRFTISRDNAKNTVYLQMNSLKPEDTAVYYCNADRYTGRDGEQSLDYWGQGTQVTVSS	low polyreactivity
QVQLVESGGGLVQAGGSLRLSCAASGRTFQFYVMGWYRQAPGKERELVASIRSGGSTNYADSVKGRFTISRDNAKNTVYLQMNSLKPEDTAVYYCAARVASPYYRYDYWGQGTQVTVSS	low polyreactivity
QVQLVESGGGLVQAGGSLRLSCAASGRTFQINGMGWYRQAPGKERELVAAITRSGGITYYADSVKGRFTISRDNAKNTVYLQMNSLKPEDTAVYYCNADSYAYYSWYDYWGQGTQVTVSS	low polyreactivity
QVQLVESGGGLVQAGGSLRLSCAASGRTFQLYAMGWYRQAPGKERELVAAITTRADRTYYADSVKGRFTISRDNAKNTVYLQLNSVKPEDTAVYYCAASYSRTYFREDYCGQGTQVTVSS	low polyreactivity
QVQLVESGGGLVQAGGSLRLSCAASGRTFQRNAMGWYRQAPGKERELVAAISGGGSTYYADSVKGRFTISRDNAKNTVYLQMNSLKPEDTAVYYCAARSATRLYYFSRGYDYWGQGTQVTVSS	low polyreactivity
QVQLVESGGGLVQAGGSLRLSCAASGRTFQSNARGRARQAPGKETELVATISSDGSTYYADSVKGRFTISRDNAKNTVYLQMNSLKPEDTAVYYCAADSHPASTIGVRLDSWGQGTQVTVSS	low polyreactivity
QVQLVESGGGLVQAGGSLRLSCAASGRTFQTNVMGWYRQAPGEERELVAAITLSGGSTNYADSVKGRFSISRDNAMYTVYLQMNSLKPEDTAVYYCNAERRYRHQWTPHYEYDYWGQGTQVTVSS	low polyreactivity
QVQLVESGGGLVQAGGSLRLSCAASGRTFQVYAMGWYRQAPGKERELVAAISLTGGGTYYADSVKGRFTISRDNAKNTVYLQMNSLKPEDTEVYYCAVRRRTHLGFLYEYWGQGTQVTVSS	high polyreactivity
QVQLVESGGGLVQAGGSLRLSCAASGRTFRANAMGWSRQAAGKERELVAAITWDGGSTYYADSVKGRFTISRDNAKNTVYLQMNSLKPEDTAVYYCAAESWFLRWYRYDYWGQGTQVTVSS	low polyreactivity
QVQLVESGGGLVQAGGSLRLSCAASGRTFRANAMGWYRQAPGKERELFAAISYSGGRTRYADSVKGRFTISRDNAKNTVYLQMNSLKPEDTAVYYCNRVIPTQSLRDAPGLHQVGYWGQGTQVTVSS	high polyreactivity
QVQLVESGGGLVQAGGSLRLSCAASGRTFRANTMGWYRQAPGKERELVAAISDRGGSTYYADSVKGRFTISRDNAKNTVYLQMNSLKPEDTAVYYCAARNTPAQLDYWGQGTQVTVSS	low polyreactivity
QVQLVESGGGLVQAGGSLRLSCAASGRTFRAYAMGWYRQAPGKERELVAAISGTGDRTYYADSVKGRFTISRDYAKNTVYLQMNSLKPEDTAVYYCAVSYSYRYYYWGQGTQVTVSS	high polyreactivity
QVQLVESGGGLVQAGGSLRLSCAASGRTFRAYAMGWYRQAPGKERELVAAITSGGSTKYADSVKGRFTITRDNAKNTVYLLMNSLKPEDTAVYYCAAVWYGYYSFDTYGYWGQGTQVTVSS	high polyreactivity
QVQLVESGGGLVQAGGSLRLSCAASGRTFRAYAMGWYRQAPGKERELVARISWSGGNTYYADSVKGRFTISRDNAKNTVYLQMNSLKPEDTAVYYCAKTYYPYPAQIYTGYSWGQGTQVTVSS	low polyreactivity
QVQLVESGGGLVQAGGSLRLSCAASGRTFRAYTMGWYRQAPGKERELVAAISTPGGSTYYADSVKGRFTISRDNAKNTVYLQMNSLKPEDTAVYYCAAGTFYYWLSYDYWGQGTQVTVSS	low polyreactivity
QVQLVESGGGLVQAGGSLRLSCAASGRTFRDNVMGWYRQAPGKERELVAAITWSSGSTHYADSVKGRFTISRDNAKNTVYLQMNSLKPEDTAVYYCAQKYGARTKYWEGWNVRYDYWGQGTQVTVSS	low polyreactivity
QVQLVESGGGLVQAGGSLRLSCAASGRTFRDYVMGWYRQAPGKERELVAVISYRGSTYYADSVKGRFTISRDNAKNTVYLQMNSVKPEDTAVYYCAGRFSLEGGYYWGQGTQVTVSS	low polyreactivity

Sequence	polyreactivity (PSR sort gate)
QVQLVESGGGLVQAGGSLRLSCAASGRTFRENAMGWYRQAPGKERELVAAAISSGDGTNYADSVKGRFTISRDNAKNTVYLQMNSLKPEDTAVYYCAADGPRDSYDYWGQGTQVTVSS	low polyreactivity
QVQLVESGGGLVQAGGSLRLSCAASGRTFRENAMGWYRQAPGKERELVAAIRRSGGRTYYADSVKGRFTISRDNAKNTVYLQMNSLKPEDTAVYYCNAVADGYAFRRPYVTYYYWGQGTQVTVSS	low polyreactivity
QVQLVESGGGLVQAGGSLRLSCAASGRTFRFNAMGWYRPAPGKEREFVAAITSGGGTYYADSVKGRFTISRDNAKNTVYLQMNSLKPEDTAVYYCATVGIVHHRLVAMDYWGQGTQVTVSS	low polyreactivity
QVQLVESGGGLVQAGGSLRLSCAASGRTFRFNAMGWYRQAPGKEMELVAAISSGGRTYYADSVKGRFTISRDNAKNTVYLQMNSLKPEDTAVYYCAARVFVRHPHQVAYDYWGQGTQVTVSS	high polyreactivity
QVQLVESGGGLVQAGGSLRLSCAASGRTFRFYAMGWYRQAPGKEREFVAAISRSVGSTYYADSVKGRFTISRDNAKNTVDLQMNSLKPEDTAVYYCNADYRSRYVEYDYWGQGTQVTVSS	high polyreactivity
QVQLVESGGGLVQAGGSLRLSCAASGRTFRFYTMGWYRQAPGKERELVAAIYWRGSSTYYADSVKGRFTISRDNAKNTVYLQMNSLKPEDTAVYYFAKKSYANEYDYWGQGTQVTVSS	high polyreactivity
QVQLVESGGGLVQAGGSLRLSCAASGRTFRGNDMGWYRQAPGKERELVATITRNGGSTRYADSVKGRFTISRDNAKNTVYLQMNSLKPEDTAVYYCNARSRYFGYDYWGQGTQVTVSS	high polyreactivity
QVQLVESGGGLVQAGGSLRLSCAASGRTFRGYAMGWSRQAHGKEREFVATISSRGGSTYYADSVKGSFTISRDNAKHTVYLQMNSLKPEDTAVYYCAAKRRAKTGYRYDYWGQGTQVTLSS	high polyreactivity
QVQLVESGGGLVQAGGSLRLSCAASGRTFRGYAMGWYRQAPGKERELVATISSRGGSTYYADSVKGRFTISRDNAKNTVYLQMNSLKPEDTAVYYCAARYIGYSSYKYDYWGQGTQVTVSS	high polyreactivity
QVQLVESGGGLVQAGGSLRLSCAASGRTFRGYVMGWYRQAPGKERELVAAISKSGGSTYYADSVKGRFTISRDNAKNTVYLQMNSLKPEDTAVYYCSKNYRYSVFYDGFDYWGQGTQVTVSS	low polyreactivity
QVQLVESGGGLVQAGGSLRLSCAASGRTFRINTMGWYRQAPGKERELVATITGSGGSTYYADSVKGRFTISRDNAKNTVYLQMNSLKPEDTAVYYCAVRWYDQVSRRGIGYYWGQGTQVTVSS	low polyreactivity
QVQLVESGGGLVQAGGSLRLSCAASGRTFRIYAMGWYRQAPGKERELVAAINSGGTTNYADSVKGRFTISRDNAKNTVYLQMISLKPEDTAVYYCAVRYSKTLSHFSYDYWGQGTQLTVSS	low polyreactivity
QVQLVESGGGLVQAGGSLRLSCAASGRTFRIYAMGWYRQAPGKERELVAAITKRGGITYYADSVKGRFTISRDNAKNTVYFQMNSLKPEDTAVYYCNKLPEPYDYDYWGQGTQVTVSS	high polyreactivity
QVQLVESGGGLVQAGGSLRLSCAASGRTFRIYAVGWYRQAPGKERELVATIDSGGSTNYADSVKGRFTISRDNAKNTVYLQMNSLKPVDTAVYYCNAEDKPWYYLAGQAEYDSWGQGTQVTVSS	low polyreactivity
QVQLVESGGGLVQAGGSLRLSCAASGRTFRIYSMGWYRQAPGKEREFVAGITRSDGSTYYADSVKGRFTISRDNAKNTVYLQMNSLKPEDTAVYYCNVEPYSHYRRTEDYWGQGTQVTVSS	high polyreactivity
QVQLVESGGGLVQAGGSLRLSCAASGRTFRKYAMGWYRQAPGKERELVAAISWSGGSTYYANSVKGRFTISRDNAKNTVYLPMNSLKPVDTAVYYCAAVPVHTGSLYWGFTTGYDYWGQGTQVTVSS	low polyreactivity
QVQLVESGGGLVQAGGSLRLSCAASGRTFRKYAMGWYRQAPGTERELVAAISWSGGSTYYANSVKGRFTISRDNAKNTVYLQMNSLKPEDTAVYYGAAVPVHNGSLYWGFTTGYDYWGQGTQVTVSS	low polyreactivity
QVQLVESGGGLVQAGGSLRLSCAASGRTFRLNAMGWYRQAPGKERELVAAITRGGRTNYADSVKGRFTISRDNAKNTVYLQMNSLKPEDTAVYYCAARYVERHTDYYYWGQGTQVTVSS	low polyreactivity
QVQLVESGGGLVQAGGSLRLSCAASGRTFRLYAMGWYRQAPGKERELVAAITENGGSTYYADSVKGRFTISRDNAKNTVYLQMTSLKPEDTAVYYCAAKRYSRYNYWGQCTQVTVSS	high polyreactivity
QVQLVESGGGLVQAGGSLRLSCAASGRTFRLYAMGWYRQAPGKERELVAAITRGGRTNYADSVKGRFTISRDNAKNTVYLQMNSLKPEDTAVYYCAARYVEGHPDYYYWGQGTQVTVSS	low polyreactivity
